What all share (test): ITC
(In ITC the heat of successive injections is recorded.)

The target in test [1] is BMAL1 transactivation domain (TAD), residues 579-626 (mouse).
Test [2] addresses BMAL1 TAD V602A I603F (mouse).
Test [3] deals with BMAL1 TAD S605N L606Y (mouse).

As a reminder, the stoichiometry N is a count of units in the complex or per binding partner.

mouse CBP KIX domain, sequence (P45481 586-665): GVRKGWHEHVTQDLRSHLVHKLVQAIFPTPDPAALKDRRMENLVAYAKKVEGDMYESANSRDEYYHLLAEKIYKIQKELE

As for “mouse CBP KIX domain (from UniProt P45481 586-665) (domain or fragment)”, the values for the stoichiometry N in test [1], in test [2] and in test [3] were 0.74, 0.82 and 1.06, respectively.

The values above are taken from article PMC4456216.
